Experimental data from patent US9114104B2, “Proteinase K inhibitors, methods and compositions therefor” (Life Technologies Corporation, priority 2008, dated 2015).
Where “and” joins values, the source holds several entries; their conditions need not be identical. Equal values may be shown once. The star is where a group is joined. MeOSuc = COC(=O)CCC(=O)*; CH2Cl = ClC*

Experiments:
[1] = target: T1, proteinase K (Parengyodontium album, UniProt P06873); experiment: Indirect linked assay: proteinase K inhibition read out by reverse transcriptase real time PCR of Xeno RNA template (Cells-to-CT kit); assay type: biochemical; conditions: for lowest concentration in the stopped mixture with inhibitory activity for proteinase K: Example 2, FIG. 1, tested 1 mM to 0.05 mM in stopped mixture; for lowest concentration in the stopped mixture inhibitory for proteinase K activity: Example 6, FIG. 5, tested 1 mM to 0.05 mM
Source text: The present example provides for inhibition of proteinase K in the context of preparing samples for nucleic acid detection. Said preparation of samples is described by pending U.S. patent application Ser. No. 12/122,274 filed May 16, 2008 entitled “Sample Preparation for In Situ Nucleic Acid Analysis, Methods and Compositions Therefor,” hereby incorporated by reference in its entirety. Embodiments of said patent application provide a process for preparing a sample containing RNA for in situ analysis of RNA or a surrogate thereof. In some embodiments, the process comprises contacting the sample containing RNA with a lysis mixture comprising a polypeptide having protease activity under conditions and for a time to produce a lysate, and admixing at least a portion of the lysate with a stop mixture that comprises an inhibitor of the polypeptide having protease activity at substantially the same temperature as the contacting step to form a stopped mixture. The resultant stopped mixture is preferably compatible with in situ reverse transcriptase and DNA polymerase reactions.
Methoxysuccinyl tetrapeptide chloromethylketone compounds synthesized as set forth in Example 1 herein were analyzed for inhibitory activity of proteinase K in such stopped mixtures as described below. Functional validation for the nucleic acid detection system using inhibitors of embodiments herein was carried out by measuring mRNA levels in biological samples using the TaqMan® Gene Expression Cells-to-CT™ Kit and the TaqMan® Cells-to-CT™ Control Kit (Applied Biosystems, Foster City, Calif.). MicroAmp® optical 96-well reaction plates were purchased from Applied Biosystems. Disposable reagent reservoirs were purchased from VistaLab Technologies, Inc (Mt. Kisco, N.Y.). Reverse transcription (RT) reactions were performed at 37° C. for 60 min, 95° C. for 5 min, and cooled to 4° C. by using GeneAmp® PCR systems 9700 (Applied Biosystems). Real time PCR was performed by using 7500 Fast Real-Time PCR System. (Applied Biosystems).
The present indirect linked assay measures the amount of inhibition of proteinase K activity by assaying reverse transcriptase real time PCR amplification of a template, which amplification is dependent upon reverse transcriptase activity.
Stop solutions (100 μl) contained the following reagents (10× concentration):
Test inhibitor, 11 mM (final concentration when diluted into stopped mixture is 1 mM). Test inhibitor was also used at concentrations such that, when diluted with a lysis mixture to form a stopped mixture as described below, the final concentration of inhibitor in the stopped mixture was 0.75 mM, 0.5 mM, 0.25 mM, 0.10 mM, 0.05 mM and 0 mM (control).
Proteinase K lysis solution (50 μL (no added DNase)) from the TaqMan® gene expression Cells-to-CT™ kit (Applied Biosystems) was aliquoted into 18 tubes. To the test samples (these are a working equivalent to lysis mixtures in the Cells-to-CT™ workflow), stop solution (5 μL) was added; the tubes were mixed and held for 2 min at room temperature. For the control reactions, 50 μl of proteinase K buffer was mixed with 5 μl of stop mix without inhibitor and the resulting reaction mixture was heated at 95° C. for 10 min to thermally inactivate the proteinase K reaction. Next, reverse transcription reagents were prepared, i.e. 15 μL 2×RT buffer, and 1.5 μL of 20×RT enzyme mix, were aliquoted and mixed in the wells of a 96 well plate. To this RT solution, 13.5 μL of each proteinase K containing stopped mixture was added and the solution was mixed well. The resulting mixtures were incubated at room temperature for 1 hr for residual proteinase K activity to degrade the RT enzyme. After 1 hr incubation at room temperature, 1 μL of Xeno™ RNA Control template (Applied Biosystems P/N 4386995 diluted to 25,000 copies/μL in 10 ng/μL poly A) was added to all wells except for the no template control wells. […]

[2] = target: T1, proteinase K; experiment: Direct assay: residual proteinase K activity on BSA substrate, Protein 80 Bioanalyzer chip; assay type: biochemical; conditions: FIG. 2
Protocol: A direct assay for inhibition of proteinase K activity by MeOSuc-AAPF-CH2Cl (SEQ ID NO:5) was carried out using bovine serum albumin (BSA) as substrate and analyzing products using each Bioanalyzer chips and precast protein gels. Such direct assays were carried out to separate inhibition of proteinase K by a test inhibitor from any effects the stopped mixture may have on an RT-PCR reaction.
The reaction mixtures included the proteinase K solution (50 μL, 100 μg/ml) mixed with 5 μL of stop solution having varying amounts of tetrapeptide, MeOSuc-AAPF-CH2Cl (SEQ ID NO:5), as for Example 2. Incubation was for 10 min at room temperature. To assay for proteinase K activity, ultrapure BSA (12 μL of 50 mg/ml) was added to each sample and the samples were held for 10 min at room temperature. Resultant mixtures were heated for 30 min at 95° C. and analyzed using a Protein 80 Bioanalyzer chip (2100 Bioanalyzer, Agilent, Santa Clara, Calif.). The Bioanalyzer protein gel data is provided in FIG. 2, in which intact Ultrapure BSA (Applied Biosystems) is at about 70 kDa, and proteinase K is at about 35 kDa. The lanes of FIG. 2 are labeled as follows from left to right: Ladder; BSA only; No BSA (proteinase K only); MeOSuc-AAPF-CH2Cl (SEQ ID NO:5) in the stopped mixture at 1 mM, 0.75 mM, 0.5 mM, 0.25 mM, 0.125 mM, and 0 mM.

[3] = target: T1, proteinase K; experiment: Direct assay: residual proteinase K activity on BSA substrate, precast SDS protein gel; assay type: biochemical
Protocol: For the precast SDS denaturing protein gel analysis data of FIG. 3, proteinase K (50 μl of 100 μg/ml) lysis mixture without DNase (as for Example 2) was mixed with 5 μl of stop solution with varying amounts of MeOSuc-AAPF-CH2Cl (SEQ ID NO:5) and incubated for 10 min at room temperature. Ultrapure BSA (10 μl of 5 mg/ml, Applied Biosystems) was added to each sample and the samples were held for 10 min at room temperature. The reaction mixture was heated for 30 min at 95° C. and analyzed using precast protein gels (BIO-RAD, Hercules, Calif.). From the 65 μl of total reaction mixture, 10 μl reaction mixture was mixed with 5 μl of gel loading dye and further heated at 95° C. for 5 min. Then, the reactions were kept on ice for 2 min and loaded on the gel. Control reactions, with and without BSA, were also carried out. […]
The precast protein gel was run at 120 V for 1 h using 1× Tris/glycine/SDS buffer (BIO-RAD, Hercules, Calif.). […] The gel was analyzed using AlphaEase™ FC software (Alpha Innotech, San Leandro, Calif.). […]
Proteinase K (50 μl of 100 μg/ml) lysis mixture without DNase (as for Example 2) was mixed with 5 μl of stop solution with varying amounts of MeOSuc-AAAPL-CH2Cl (SEQ ID NO:7) and incubated for 10 min at room temperature. […] The reaction mixture was heated for 30 min at 95° C. and analyzed using precast protein gels (BIO-RAD, Hercules, Calif.). […]

[4] = target: T1, proteinase K; experiment: Detection of β-actin RNA in HeLa cell lysates after stop solution (in vitro validation); assay type: biochemical; conditions: FIG. 6; ~10,000 HeLa cells lysed, β-actin RT-PCR
Protocol: HeLa cells (˜10,000 cells) were lysed in 50 μl lysis solution for 5 minutes at room temperature. Stop solution (5 μl) was then added; the lysate-stop solution was mixed, and incubated for 2 minutes at room temperature. A volume of 10 μl of stopped lysate was added to a 50 μl RT reaction followed by addition of 4 μl of RT reaction into a 20 μl PCR reaction using the β-actin primers/probe of the TaqMan® Gene Expression Cells-to-CT™ Kit (Applied Biosystems).

[5] = target: T1, proteinase K; conditions: 100 μg/ml proteinase K; cited from earlier work

T1 sequence (P06873 106-384): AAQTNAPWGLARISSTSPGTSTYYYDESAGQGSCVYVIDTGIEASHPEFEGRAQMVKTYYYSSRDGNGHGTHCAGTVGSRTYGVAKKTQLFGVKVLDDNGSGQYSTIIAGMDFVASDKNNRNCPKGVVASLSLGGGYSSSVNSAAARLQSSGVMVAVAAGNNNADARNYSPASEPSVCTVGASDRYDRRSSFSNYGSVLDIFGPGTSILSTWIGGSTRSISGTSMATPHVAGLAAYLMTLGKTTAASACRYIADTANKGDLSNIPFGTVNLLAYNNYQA

methoxysuccinyl-AAPF-chloromethyl ketone (HELM PEPTIDE1{[COC(=O)CCC(=O)[*:2]].A.A.P.F.[ClC[*:1]]}$$$$V2.0; SMILES COC(=O)CCC(=O)N[C@@H](C)C(=O)N[C@@H](C)C(=O)N1CCC[C@H]1C(=O)N[C@@H](Cc1ccccc1)C(=O)CCl) [MeOSuc-AAPF-CH2Cl]
lowest concentration in the stopped mixture with inhibitory activity for proteinase K ([1]; listed as MeOSuc-AlaAlaProPhe-CH2Cl): 0.05 mM
average Ct (cycle threshold) ([1]; FIG. 1, 0.05 mM inhibitor): about 30
lowest concentration capable of inhibiting proteinase K ([2]; 10 min incubation with proteinase K (100 μg/ml) before BSA): 0.125 mM
concentration capable of inhibiting proteinase K when incubated for a longer period prior to BSA ([2]; longer incubation with proteinase K before addition of BSA substrate): < 0.125 mM
inhibiting concentration relative to MeOSuc-AAPV-CH2Cl ([3]; FIG. 3, compare lanes at 0.5 mM and 0.25 mM): at least half that of MeOSuc-AAPV-CH2Cl

methoxysuccinyl-AlaAlaProVal-chloromethyl ketone (MeOSuc-AAPV-CH2Cl) [reference compound]
lowest concentration in the stopped mixture with inhibitory activity for proteinase K [1]: about 0.25 mM
lowest concentration in the stopped mixture inhibitory for proteinase K activity [1]: about 0.25 mM
concentration at which inhibitor begins to lose efficacy ([1]; FIG. 1): greater than 0.25 mM
average Ct (cycle threshold) ([1]; FIG. 1, 0.1 mM inhibitor): 40
average Ct (cycle threshold) ([1]; FIG. 1, 0.25 mM inhibitor): about 33
average Ct (cycle threshold) ([1]; FIG. 1, 0.5 mM inhibitor, Ct ~40 = active proteinase K, ~30 = inhibited): about 30
average Ct (cycle threshold) ([1]; FIG. 5, 0.1 mM inhibitor): about 40
average Ct (cycle threshold) ([1]; FIG. 5, 0.25 mM inhibitor): about 29
concentration providing effective inhibition of proteinase K [4]: 0.5 mM
lowest concentration with inhibitory activity for proteinase K [5]: 0.25 mM

methoxysuccinyl-AAAPL-chloromethyl ketone (HELM PEPTIDE1{[COC(=O)CCC(=O)[*:2]].A.A.A.P.L.[ClC[*:1]]}$$$$V2.0; SMILES COC(=O)CCC(=O)N[C@@H](C)C(=O)N[C@@H](C)C(=O)N[C@@H](C)C(=O)N1CCC[C@H]1C(=O)N[C@@H](CC(C)C)C(=O)CCl) [MeOSuc-AAAPL-CH2Cl]
lowest concentration in the stopped mixture inhibitory for proteinase K activity [1]: about 0.05 mM
lowest concentration capable of inhibiting proteinase K (BSA present in gel lane) ([3]; FIG. 7, tested 1 mM to 0.05 mM in stopped mixture): 0.1 mM and 0.10 mM
concentration providing effective inhibition of proteinase K [4]: about 0.1 mM
